# Source: the supplement of paper PMC10724198
# ± gives the standard deviation of the averaged measurements.
# Test system: Saccharomyces cerevisiae
# Experiment: protein stability index of tFT-peptide fusion (C-terminal peptide) (PSI (0-1 scale)); higher = more stable (slower turnover)
# Conditions: genetic background: wild type; temperature: 30 C
# Method: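 Multiplexed protein stability (MPS) profiling in S. cerevisiae. Random 12-aa peptides (tFT-X12 library) are fused to the C-terminus of a sfGFP-mCherry tandem fluorescent timer, after mCherry and a GGGS linker. Cells are FACS-sorted into 8 mCherry/sfGFP bins and deep-sequenced. The protein stability index (PSI) is the read-weighted bin average, scaled from 0 (unstable) to 1 (stable). Only peptides with >10 reads are reported; cells were grown at 30 °C in SC-His with glucose.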
# 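Also: PSI is a weighted mean of sequencing reads over stability bins, variants kept only with over 10 reads, mCherry proximal and sfGFP distal, peptide attached via GGGS linker.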
row,Sequence,protein stability index
1,GAGWGWGRKGSR,0.751 ± 0.089
2,GAHATVPSMVTL,0.698 ± 0.092
3,GALVGWAMALGW,0.679 ± 0.033
4,GAMLAGRQGGGL,0.655 ± 0.0089
5,GANKQHLARKTE,0.7254 ± 0.0069
6,GAPSHVTPLPQI,0.686 ± 0.047
7,GARGGEGVSGGA,0.701 ± 0.012
8,GARPTKCCSYGT,0.683 ± 0.011
9,GARTPVPRHRVH,0.6396 ± 0.0011
10,GARWGWGRKGSR,0.692 ± 0.072
11,GASGGGRGNLEV,0.727 ± 0.13
12,GAVARFRERALS,0.525 ± 0.0098
13,GAVLSYIAPTPL,0.7404 ± 0.0055
14,GAVVLAGWGVLK,0.718 ± 0.028
15,GAVWGRLTGSAH,0.6469 ± 0.005
16,GAVYHGGMASVR,0.746 ± 0.054
17,GAWFTSSPVFGS,0.731 ± 0.034
18,GCAGRHRWVGEW,0.6649 ± 0.0027
19,GCAITVKRLWFG,0.656 ± 0.076
20,GCCGQGLPWNPP,0.562 ± 0.0077
21,GCFARSEKLSGL,0.687 ± 0.1
22,GCGAVEGFGVGW,0.625 ± 0.03
23,GCGGAWGVWDGV,0.729 ± 0.072
24,GCGLVGVVTGRD,0.71 ± 0.14
25,GCIELTGHLGSF,0.7059 ± 0.0036
26,GCLWRGARALGP,0.687 ± 0.075

row,Sequence,protein stability index
1,GCMGGYAFFSGG,0.571
2,GCPRGGVGSRGV,0.659 ± 0.098
3,GCRRYLFLFFGC,0.6 ± 0.047
4,GCVGCNRWWPGW,0.721 ± 0.042
5,GCVGIGFSPGGG,0.656 ± 0.014
6,GDGAGGGFGLVV,0.724 ± 0.097
7,GDGNERPLGRRD,0.643 ± 0.052
8,GDHPPMETISRP,0.734 ± 0.095
9,GDIGAGMGVVGE,0.641 ± 0.0049
10,GDKQKKNEKNKE,0.681 ± 0.048
11,GDNRGLTRVGIE,0.718 ± 0.053
12,GDPADGACGPTR,0.8 ± 0.062
13,GDRNNLRCWNAS,0.712 ± 0.11
14,GDRSKECAMKNG,0.67 ± 0.013
15,GDVLLLGGAGER,0.671 ± 0.07
16,GDVPHRIEGEFL,0.788 ± 0.038
17,GDYITIGGGLIW,0.759 ± 0.017
18,GEAEGGEEYGEG,0.636 ± 0.017
19,GEARVGGRWWSK,0.7722 ± 0.0071
20,GECASVFSSGFF,0.72 ± 0.17
21,GEDRLSPVGWDR,0.702 ± 0.035
22,GEGNRVPNPSRP,0.669 ± 0.022
23,GEGRGRTETEMK,0.682 ± 0.033
24,GEGTQGVSIGPR,0.711 ± 0.015
25,GEIGVRGYQAEE,0.739 ± 0.029
26,GEKEARRKKVSM,0.749 ± 0.071

row,Sequence,protein stability index
1,GEKKTNHEPGAS,0.759 ± 0.06
2,GELLLVAGMHWL,0.681 ± 0.023
3,GERHTGTLRRPD,0.701 ± 0.065
4,GERLGECGGGVG,0.6652 ± 0.0021
5,GESAWWRSFGDV,0.791 ± 0.11
6,GESRVGMRRGGR,0.667 ± 0.029
7,GETGRGRRPRSQ,0.667 ± 0.062
8,GEVGTVEGGATG,0.69596 ± 7e-05
9,GEVMLRYQRISF,0.713 ± 0.018
10,GFEWWCQSVSVG,0.688 ± 0.018
11,GFGWYVPESWSS,0.616 ± 0.043
12,GFIDGSTVRTCL,0.64 ± 0.054
13,GFISVGVYPVVR,0.677 ± 0.0081
14,GFLGVDLVYVVH,0.567 ± 0.033
15,GFTHAPTVPSPE,0.745 ± 0.017
16,GFTLCPVSLGYF,0.688 ± 0.017
17,GGAGGTGVRCGT,0.669 ± 0.017
18,GGAPRSSGRAGE,0.691 ± 0.028
19,GGAVAVRGGSAA,0.636 ± 0.035
20,GGCCLWVGFLGG,0.7016 ± 0.0021
21,GGCEWWAWGRGG,0.727 ± 0.032
22,GGCIGAKSVGGG,0.652 ± 0.027
23,GGCRRGVQLFWD,0.7236 ± 0.0023
24,GGCVGVLGGGGF,0.659 ± 0.016
25,GGDRGHVTGEVG,0.657 ± 0.06
26,GGEKEREEEDKE,0.625 ± 0.056

row,Sequence,protein stability index
1,GGFGGAWRGWAP,0.692 ± 0.016
2,GGFLATAGLSVT,0.673 ± 0.056
3,GGFNARVSPTRL,0.709 ± 0.1
4,GGFRSVCGGVNW,0.665 ± 0.011
5,GGGAGRGSRVWG,0.746 ± 0.076
6,GGGAIFDRLLCL,0.6545 ± 0.0049
7,GGGARWGWGGRM,0.648 ± 0.033
8,GGGCARRRGGRV,0.6958 ± 0.0049
9,GGGDFDTLWDSR,0.789 ± 0.03
10,GGGDRRRTARLS,0.578 ± 0.027
11,GGGEGRGGVEYG,0.64 ± 0.037
12,GGGERLDDIVGG,0.801 ± 0.081
13,GGGEVLFHLRRA,0.673 ± 0.019
14,GGGEYHTIMRTT,0.786 ± 0.2
15,GGGGCDVGGCVG,0.675 ± 0.039
16,GGGGGEAGVIGR,0.892 ± 0.15
17,GGGGGGACRPVG,0.659 ± 0.094
18,GGGGGGAEGAGW,0.711 ± 0.02
19,GGGGGGGCGGDR,0.654 ± 0.08
20,GGGGGGGGGGGV,0.709 ± 0.053
21,GGGGGGGGRGWG,0.63411 ± 1.7e-05
22,GGGGGGGVAGGV,0.715 ± 0.041
23,GGGGGGIGVGMG,0.705 ± 0.024
24,GGGGGGKEAVVR,0.649 ± 0.053
25,GGGGGMEPGCGP,0.682 ± 0.043
26,GGGGGREPGCGP,0.707 ± 0.01

row,Sequence,protein stability index
1,GGGGGVGGVGRV,0.668 ± 0.062
2,GGGGGVGVEGEP,0.723 ± 0.067
3,GGGGGWVRWASG,0.689 ± 0.064
4,GGGGLGRGKGCW,0.706 ± 0.03
5,GGGGMASRGGNK,0.685 ± 0.027
6,GGGGMGGCSDDG,0.742 ± 0.17
7,GGGGRAALRWYG,0.651 ± 0.014
8,GGGGSGRRIGCR,0.696 ± 0.035
9,GGGGSRGRVGDI,0.7182 ± 0.0022
10,GGGLLMVAASRC,0.634 ± 0.014
11,GGGRAAIVRGGW,0.682 ± 0.014
12,GGGRAEPLEPGV,0.648 ± 0.07
13,GGGRGGAAEGAV,0.781 ± 0.07
14,GGGRRWPGGSGG,0.775 ± 0.075
15,GGGRVSAGGDSG,0.751 ± 0.071
16,GGGVGLGGYGEG,0.636 ± 0.055
17,GGGVGMLRRSGG,0.689 ± 0.054
18,GGGVSFWVGVVA,0.656 ± 0.042
19,GGGWDWWFGVPG,0.792 ± 0.13
20,GGGWGGEAVRVW,0.65 ± 0.055
21,GGGWGRVALGQG,0.612 ± 0.015
22,GGHRRQGKKFTP,0.711 ± 0.067
23,GGKARKRKDKRA,0.645 ± 0.1
24,GGKNVKCLDRGL,0.693 ± 0.014
25,GGLNIGIGYSVG,0.643 ± 0.1
26,GGLRWVLGAQAV,0.707 ± 0.063

row,Sequence,protein stability index
1,GGLVGSSVWGWG,0.703 ± 0.04
2,GGLVVRCGVTSS,0.695 ± 0.15
3,GGNKETKITRIE,0.698 ± 0.011
4,GGPLDASICRSS,0.694 ± 0.061
5,GGPPPHHKTRPG,0.603 ± 0.063
6,GGPRDNEGSWWV,0.7122 ± 0.0029
7,GGQGRYSAPPSR,0.624 ± 0.02
8,GGREDGKRGRQK,0.684 ± 0.055
9,GGRGFRGVLRSN,0.696 ± 0.069
10,GGRGGEGLVREG,0.667 ± 0.019
11,GGRGRGMGGIFG,0.667 ± 0.053
12,GGRGRRAGGSSG,0.745 ± 0.016
13,GGRGRRRGGVGG,0.701 ± 0.011
14,GGRGRRWAGPRC,0.702 ± 0.039
15,GGRGVVVGQGAG,0.705 ± 0.027
16,GGRGWAGRGGSG,0.707 ± 0.052
17,GGRPRGLVAGAA,0.657 ± 0.022
18,GGRTEYILQLKK,0.686 ± 0.021
19,GGRVARRGAERG,0.654 ± 0.14
20,GGRVGGSMGVGG,0.659 ± 0.028
21,GGRWMWWAGAAG,0.79 ± 0.3
22,GGSSWSLGGGCG,0.713 ± 0.023
23,GGTGRRRVGRRG,0.696 ± 0.018
24,GGTVAGLYILGF,0.6301 ± 0.001
25,GGVAADGGGGRG,0.675 ± 0.043
